Results reported in patent US9914914B2, “Polymerase capable of producing non-DNA nucleotide polymers” (Medical Research Council, priority 2012, dated 2018).
Changes are numbered by the printed parent chain. Names and notes keep the numbering of the source. One block for each molecule: values may come before it. [HNA-N] = hexitol nucleic acid (N: the base)

Assays:
CD30 = molecular target: T1, CD30 (Homo sapiens, UniProt P28908); assay: Fluorescence polarisation affinity of txNA aptamers; assay type: binding
T1 construct: selections were carried out against the extracellular domains of both CD30 and L1-CAM expressed as N-terminal Fc chimeras
T1 sequence (P28908 19-385 limits assumed): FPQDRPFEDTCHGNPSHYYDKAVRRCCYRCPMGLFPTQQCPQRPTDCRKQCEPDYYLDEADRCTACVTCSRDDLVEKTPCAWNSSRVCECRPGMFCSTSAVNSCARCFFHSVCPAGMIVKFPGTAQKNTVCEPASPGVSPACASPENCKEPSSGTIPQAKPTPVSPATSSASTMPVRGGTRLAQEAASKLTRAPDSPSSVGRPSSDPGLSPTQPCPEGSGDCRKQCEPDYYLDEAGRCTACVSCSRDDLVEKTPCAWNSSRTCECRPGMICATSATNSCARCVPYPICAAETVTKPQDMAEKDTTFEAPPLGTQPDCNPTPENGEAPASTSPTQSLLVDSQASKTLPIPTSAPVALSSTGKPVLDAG
Experimental: In this example, selections were carried out against the extracellular domains of both CD30 and L1-CAM expressed as N-terminal Fc chimeras. Briefly, for each round libraries were annealed in 1×HBSSTT (Hanks' Balanced Salt Solution with 5 mM each TRIS pH 7.4 and 8.3 and 0.05% Tween-20) for 5 min 85° C. and cooled to 4° C. at 0.1° C./sec, exposed to either protein AG or streptavidin-coated paramagnetic beads (see below), filtered to remove the beads and then added to recombinant protein in 1×HBSST. These mixtures were incubated at room temperature on a rotator to allow aptamers to bind to the recombinant proteins in solution and binders were recovered via protein AG or streptavidin-coated paramagnetic beds. Rounds 1, 2 and 5 were carried out using native protein and Protein AG Magnetic Beads (Pierce). All other rounds were carried out using protein biotinylated with NHS-LC-LC-biotin (Pierce) and recovered from the binding incubation using NanoLink Streptavidin Magnetic beads (SoluLink). The beads were washed in 1×HBSSTT for 2 h-16 h at room temperature using a Thermo KingFisher and aptamers eluted from the proteins bound to the beads using 30 mM NaOH. Negative selections were carried out against free Fc from round 5 onwards. […]
Aptamers selected against a) CD30 and b) L1-CAM were tested in fluorescence polarisation (FP) and affinities calculated as above (and/or Pinheiro et al (2012)). […]

[1] = test system: sTAR (HIV trans-activating response RNA motif); assay: HNA aptamer affinity by SPR, BLI and ELONA titration; assay type: binding; conditions: read-out: dissociation constant (KD)
Experimental: ELONA (Aptamer-ELISA) was carried out as described (56) with minor modifications. For screening and characterization, ssRNA-HNA chimeras were prepared as described above (13.) (using fitcRNAfd (Table S5)) and binding assayed by immunodetection of the FITC-tag on the bound aptamer. […] Bound antibody was detected using a colorimetric substrate as described above (see PAA, 5) […]
For anti-TAR aptamers, 1000RU sTAR was captured (or, as a reference flow cell, 1000RU scrambledTAR-1) before blocking with excess free biotin. Anti-TAR aptamers were injected for 150 s at a series of concentrations (125 nM, 62.5 nM, 31.3 nM, 15.6 nM, 7.8 nM and 3.9 nM) and dissociation monitored for 600 s, in buffer R (20 mM NaOAc, 140 mM KOAc, 3 mM Mg(OAc)2, 0.1% (v/v) Tween20). […]
To obtain optimal fits, SPR data was fitted to double-exponential model using KaleidaGraph (Synergy Software, Pennsylvania, USA) and Prism (GraphPad Software Inc., California, USA) (57). The rate constants of dissociation were measured by fitting dissociation data at time t (Rdissoc) using a double-exponential function: Rdissoc=Rolexp^−(k^off1^t)+Ro2exp^−(k^off2^t)+RI (1) where koff is the dissociation rate constant, Ro is maximum change in resonance for each phase, RI is the bulk resonance change. […]

[2] = test system: arabinosyl-NTPs, DNA template; assay: Polymerase dilution experiment, ANA synthesis, D4K vs D4K521; assay type: biochemical; conditions: for polymerase concentration at which full-length (+57 nt) ANA product is present: 0.125 mM each arabinosyl-NTP, 1 min 94° C., 30 sec 50° C., 2 min 65° C.
Experimental: In this experiment, the concentration of buffer (1× Thermopol (NEB) buffer), arabinosyl-NTPs (0.125 mM each), primer (200 nM), template (400 nM), the reaction volume ([…]) and extension conditions (1 min 94° C., 30 sec 50° C., 2 min 65° C.) were held constant.

[3] = test system: arabinosyl-NTPs, DNA template; assay: Polymerase dilution experiment, ANA synthesis, D4 vs D4K; assay type: biochemical
Experimental: In this experiment, the concentration of buffer (1× Thermopol (NEB) buffer), arabinosyl-NTPs (0.25 mM each), primer (200 nM), template (400 nM), the reaction volume ([…]) and extension conditions (1 min 94° C., 30 sec 50° C., 2 min 65° C.) were held constant.

faNTP, DNA template = assay: FANA synthesis by D4YK; assay type: biochemical
Experimental: (a) FANA synthesis at reduced faNTP concentrations. […] (b) Timecourse of YtRtemp8 (encoding 98 nt incorporations) synthesis by D4YK, showing substantial full-length synthesis in only 5 min. (c) Timecourse of ApLib5 (encoding 78 nt incorporations, of which 40 are random nucleotides) synthesis by D4YK, again showing substantial full length product in only 5 min.
Not only is FANA synthesis effective at relatively low FANA-NTP (faNTP) concentrations (less than 50 μM each, compared to 250 μM each for ANA synthesis) but synthesis of both a […] incorporation tRNA and an N40 library is efficient in less than 5 minutes (FIG. 15). This rapid synthesis and toleration of a wide range of substrate concentrations is indicative of an efficient polymerase, but neither single incorporation kinetics nor processivity have been investigated for D4YK.

Molecule: CD30_13: txNA aptamer selected against CD30, SEQ ID NO:20 (TAGATGTGGTAGAAGTCGTCATTTGGCGAGAAAGCTCAGTCTCAGG; XNA aptamer, chemistry of this clone not given here)
- binding to CD30 (CD30): bind CD30 tightly and with good affinity

Molecule: T5-S8-7: anti-TAR HNA aptamer, SEQ ID NO:16 (AGGTAGTGCTGTTCGTTCATCTCAAATCTAGTTCGCTATCCAGTTGGC; all [HNA-N], backbone and methylation of C not given here)
- Kd [1]: 28 to 67 nM

- polymerase concentration at which full-length (+57 nt) ANA product is present [2]: 18.8 nM
- polymerase concentration at which full-length (+57 nt) ANA product is present ([3]; 0.25 mM each arabinosyl-NTP, 1 min 94° C., 30 sec 50° C., 2 min 65° C.): 18.8 nM
- polymerase concentration for full-length ANA product relative to D4 ([3]; fraction of the concentration required for D4): less than 1/15
B1: D4K: Tgo polymerase with V93Q, D141A, E143A, L403P, A485L, P657T, E658Q, K659H, Y663H, E664K, D669A, K671N, T676I; SEQ ID NO:5 (protein)
chain: MILDTDYITEDGKPVIRIFKKENGEFKIDYDRNFEPYIYALLKDDSAIEDVKKITAERHGTTVRVVRAEKVKKKFLGRPIEVWKLYFTHPQDQPAIRDKIKEHPAVVDIYEYDIPFAKRYLIDKGLIPMEGDEELKMLAFAIATLYHEGEEFAEGPILMISYADEEGARVITWKNIDLPYVDVVSTEKEMIKRFLKVVKEKDPDVLITYNGDNFDFAYLKKRSEKLGVKFILGREGSEPKIQRMGDRFAVEVKGRIHFDLYPVIRRTINLPTYTLEAVYEAIFGQPKEKVYAEEIAQAWETGEGLERVARYSMEDAKVTYELGKEFFPMEAQLSRLVGQSLWDVSRSSTGNLVEWFLLRKAYERNELAPNKPDERELARRRESYAGGYVKEPERGLWENIVYPDFRSLYPSIIITHNVSPDTLNREGCEEYDVAPQVGHKFCKDFPGFIPSLLGDLLEERQKVKKKMKATIDPIEKKLLDYRQRLIKILANSFYGYYGYAKARWYCKECAESVTAWGRQYIETTIREIEEKFGFKVLYADTDGFFATIPGADAETVKKKAKEFLDYINAKLPGLLELEYEGFYKRGFFVTKKKYAVIDEEDKITTRGLEIVRRDWSEIAKETQARVLEAILKHGDVEEAVRIVKEVTEKLSKYEVPTQHLVIHKQITRALNDYKAIGPHVAVAKRLAARGIKIRPGTVISYIVLKGSGRIGDRAIPFDEFDPAKHKYDAEYYIENQVLPAVERILRAFGYRKEDLRYQKTRQVGLGAWLKPKT
modifications: Polymerase D4YK derived from T. gorgonarius
- time for efficient FANA synthesis (faNTP, DNA template; 97 nt incorporation tRNA and N40 library): less than 5 minutes
- time to substantial full-length FANA product (faNTP, DNA template; ApLib5 (78 nt incorporations, 40 random)): 5 min
- time to substantial full-length FANA synthesis (faNTP, DNA template; YtRtemp8 (98 nt incorporations)): 5 min
- faNTP concentration down to which FANA synthesis remains robust (faNTP, DNA template; YtRtemp9 (93 nt incorporations), each faNTP): ≥ 31.2 µM
- FANA-NTP concentration at which FANA synthesis is effective (faNTP, DNA template; each faNTP, compared to 250 μM each for ANA synthesis): less than 50 μM

- polymerase concentration at which full-length (+57 nt) ANA product is present [2]: 2.3 nM
- polymerase concentration for full-length ANA product relative to D4K ([2]; fraction of the concentration required for D4K): less than 1/8
B2: D4K521: D4K with the further mutation I521L, SEQ ID NO:7 (protein)
chain: B1 chain with I521L
modifications: Mutant polymerase D4YK with I521L mutation, derived from T. gorgonarius
